The source of these data is US20230235068A1.

This test has as its target extracellular domain portion of LEPR protein expressed with a C-terminal human Fc tag (human). Description: competition ELISA, 10 nM hLEPR-hFc binding to coated hLeptin; soluble hLeptin as competitor. In general terms: An ELISA detects its analyte on a solid surface through an enzyme-linked reagent.

Sequence of extracellular domain portion of LEPR protein expressed with a C-terminal human Fc tag (human) (chain, as listed by the source limits assumed): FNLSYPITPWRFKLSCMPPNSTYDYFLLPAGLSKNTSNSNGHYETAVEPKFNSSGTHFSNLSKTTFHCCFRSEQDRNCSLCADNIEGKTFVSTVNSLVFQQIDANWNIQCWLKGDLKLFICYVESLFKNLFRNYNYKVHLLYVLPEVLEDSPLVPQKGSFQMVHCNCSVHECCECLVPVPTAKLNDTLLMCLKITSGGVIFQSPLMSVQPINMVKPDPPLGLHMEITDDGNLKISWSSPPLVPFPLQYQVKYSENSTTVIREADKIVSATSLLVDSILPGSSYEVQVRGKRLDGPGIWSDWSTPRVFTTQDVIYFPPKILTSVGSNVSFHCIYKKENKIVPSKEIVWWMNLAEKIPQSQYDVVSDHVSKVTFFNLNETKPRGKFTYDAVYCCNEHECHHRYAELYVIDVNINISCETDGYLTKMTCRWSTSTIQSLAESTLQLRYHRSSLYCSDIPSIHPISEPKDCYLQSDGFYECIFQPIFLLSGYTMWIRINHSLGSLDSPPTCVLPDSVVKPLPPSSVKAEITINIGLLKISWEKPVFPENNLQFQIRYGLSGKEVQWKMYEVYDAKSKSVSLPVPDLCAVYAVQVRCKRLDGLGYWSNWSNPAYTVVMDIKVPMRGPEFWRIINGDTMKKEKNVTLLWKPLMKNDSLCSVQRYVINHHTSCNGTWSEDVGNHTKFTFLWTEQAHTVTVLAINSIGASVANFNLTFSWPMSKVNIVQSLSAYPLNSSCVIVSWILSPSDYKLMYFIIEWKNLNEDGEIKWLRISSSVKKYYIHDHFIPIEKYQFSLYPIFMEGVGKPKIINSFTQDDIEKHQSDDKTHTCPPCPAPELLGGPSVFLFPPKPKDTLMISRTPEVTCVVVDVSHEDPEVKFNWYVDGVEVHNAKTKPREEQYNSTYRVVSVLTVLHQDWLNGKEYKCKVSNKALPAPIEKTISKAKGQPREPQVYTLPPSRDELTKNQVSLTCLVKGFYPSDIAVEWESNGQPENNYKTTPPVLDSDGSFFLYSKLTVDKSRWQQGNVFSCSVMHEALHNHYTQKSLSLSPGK

In turn, “human Leptin (from UniProt P41159 22-167) (ligand)” gave a % blockade at 500 nM of 99%.
